Data set [1] concerns the target T1, ICAM-1 (Homo sapiens, UniProt P05362 P05362:28-532). The data set is described as follows: RT-qPCR cell binding, 50 nM RNA, 37 C 15 min, yeast tRNA pre-treatment. Conditions: tags: full-length human ICAM-1 cDNA (pCMV6-ICAM-1) transiently expressed in COS7 cells. The protocol: Following the analysis of the enriched sequences, binding assays by RT-qPCR were performed in order to select the sequences able to bind COS7-ICAM-1. Essentially, DNA sequences were amplified and transcribed. Then, RNA sequences were incubated at 50 nM, as final concentration, for 15 minutes at 37° C., after pre-treatment with yeast tRNA 200 μg/mL, on COS7-WT and COS7-ICAM-1. Following incubation, cells were washed 3 times with PBS and recovered in TRIsure reagent. An RNA sequence used as reference control was spotted in each point for the normalization. A fold ratio was calculated comparing binding values of COS7-ICAM-1 over COS7-WT. Twelve sequences representatives of couples or groups of identical sequences were screened. Those with higher fold ratio were chosen for further analysis performing experimental triplicates.

Data set [2] addresses T1, ICAM-1. The data set is described as follows: flow; COS7-ICAM-1 cells, 37 C 30 min, yeast tRNA 200 ug/mL pre-treatment, n=6. Particulars: tags: full-length human ICAM-1 cDNA (pCMV6-ICAM-1) transiently expressed in COS7 cells; label: 5'-Alexa Fluor 488.
Data set [3] addresses ICAM-1 (endogenous, TNFalpha-induced) (UniProt P05362 P05362:28-532). In words: flow; TNFalpha-stimulated HMEC-1 cells, 37 C 30 min, yeast tRNA 200 ug/mL pre-treatment, n=3. Particulars: tags: HMEC-1 cells stimulated with TNFalpha 48 h; label: 5'-Alexa Fluor 488. The protocol:
HMEC-1 cells were stimulated with TNFalpha for 48h to induce ICAM-1 expression.

For data set [4], the target named is T1, ICAM-1. In words: RT-qPCR cell binding on COS7-ICAM-1, 37 C 15 min, yeast tRNA 200 ug/mL pre-treatment. Particulars: tags: full-length human ICAM-1 cDNA (pCMV6-ICAM-1) transiently expressed in COS7 cells. On the procedure:
The same experiment was carried out with the unrelated aptamer A10, as negative control (sequence disclosed in Lupold S. E. et al., Cancer Res. 2002, 62, 4029-4033). The binding was evaluated by RT-qPCR.
On the technique in general: Real-time PCR tracks product formation cycle by cycle.

Data set [5] addresses T1, ICAM-1. In words: RT-qPCR cell binding, 50 nM RNA, 37 C 15 min. Particulars: tags: full-length human ICAM-1 cDNA (pCMV6-ICAM-1) transiently expressed in COS7 cells. On the procedure: To the aim of testing if the short aptamer 10.T (SEQ ID NO: 1) contained the active site of the original molecule 12c-10 (SEQ ID NO: 2) and preserved high binding and affinity to COS7-ICAM-1, binding assays were performed maintaining the same conditions used for long aptamers screening.
The RNA sequence 10.T was incubated at 50 nM, as final concentration, for 15 minutes at 37° C. on COS7-WT and COS7-ICAM-1. The ratio comparing binding values of COS7-ICAM-1 over COS7-WT (fold change) is reported in FIG. 5, showing a value of 2.2.

T1 sequence (P05362 28-532, one chain of several): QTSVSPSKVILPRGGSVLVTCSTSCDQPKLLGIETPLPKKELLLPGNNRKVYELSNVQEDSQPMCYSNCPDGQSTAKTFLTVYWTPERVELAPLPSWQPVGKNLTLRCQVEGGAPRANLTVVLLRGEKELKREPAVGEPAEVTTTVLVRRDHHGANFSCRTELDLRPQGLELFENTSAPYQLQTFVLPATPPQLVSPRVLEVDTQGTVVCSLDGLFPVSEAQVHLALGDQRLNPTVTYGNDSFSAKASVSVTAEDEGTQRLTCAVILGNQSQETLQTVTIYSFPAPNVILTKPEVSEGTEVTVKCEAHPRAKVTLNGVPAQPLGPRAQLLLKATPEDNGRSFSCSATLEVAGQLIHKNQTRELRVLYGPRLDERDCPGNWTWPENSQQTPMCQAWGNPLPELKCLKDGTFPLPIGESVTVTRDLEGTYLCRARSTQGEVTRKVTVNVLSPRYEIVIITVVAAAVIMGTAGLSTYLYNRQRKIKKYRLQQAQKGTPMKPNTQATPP
Chain of ICAM-1 (endogenous, TNFalpha-induced) (P05362 28-532, one chain of several): as above

B1: 12c-10 (ssRNA)
RNA: GGGAAGAGAAGGACAUAUGAUCAUGAUACGUUGCGUGAGCAACUGCGGCGCUAAAGUUUGGUUGACUAGUACAUGACCACUUGA
modifications: 2'-F pyrimidines
Turning to B1, the binding signal in data set [1] was 3.13 fold COS7-ICAM-1 over COS7-WT.

B2: Alexa488-10.T (ssRNA)
RNA: UCAUGAUACGUUGCGUGAGCAACUGCGGCGCUAAAGUUUGGUUGACUAGUACAUG
modifications: 2'-F pyrimidines; 5'-C12 amino linker
The term Kd denotes the constant that tells how readily two partners part at equilibrium. Regarding B2, the Kd in data set [2] stood at 116 nM; in data set [3], 106 nM.

B3: 10.T (ssRNA)
RNA: B2 RNA
modifications: 2'-F pyrimidines
For B3, the Kd in data set [4] worked out at 376 nM. Moreover, the binding signal in data set [5] was 2.2 fold COS7-ICAM-1 over COS7-WT.

Source of the values: patent US20210292762, “ICAM-1 APTAMERS, DIAGNOSTIC AND THERAPEUTIC USES THEREOF” (BRACCO IMAGING S.P.A., published 2021).
